Experimental data from US20230012273A1 (Boehringer Ingelheim, published 2023).
Where a chain is given by its changes, count along the chain named.

B1: Antibody E9 (antibody, human IgG1, kappa, L234A L235A, V domains shown)
VH: QVQLQESGPGLVRPSETLSLTCTVSGGSIRNYYWSWIRQPPGKGLEWIGFIYYNGRTFYNPSLKSRVTISLDMSINQFSLKMTSVTAADTAVYYCARVRAYSGIGLDGTDVWGQGTTVTVSS
VL: DIVMTQSPLSLPVTPGEPASISCKSSQSLLYSNAYNYLDWYLQRPGQSPQLLIYLGSNRASGVPDRFSGSGSGTDFTLKISRVEAEDVGVYYCMQALQTPLTFGGGTKVEIKR
B2: Antibody E4 (antibody, human IgG1, kappa, L234A L235A, V domains shown)
VH: B1 VH with I75K
VL: B1 VL with A34G, N36A
B3: Antibody E17 (antibody, human IgG1, kappa, L234A L235A, V domains shown)
VH: B1 VH with I48M, Y53D, I75M
VL: B1 VL
B4: Antibody E11 (antibody, human IgG1, kappa, L234A L235A, V domains shown)
VH: B1 VH with I48M, Y53D, I75M
VL: B1 VL with A34G, N36A
B5: Antibody E19 (antibody, human IgG1, kappa, L234A L235A, V domains shown)
VH: B1 VH with N54T, I75K
VL: B1 VL with A34G, N36A, L55Q, Y91F
B6: Antibody E14 (antibody, human IgG1, kappa, L234A L235A, V domains shown)
VH: B1 VH with M73K, I75K
VL: B1 VL
B7: Antibody E21 (antibody, human IgG1, kappa, L234A L235A, V domains shown)
VH: B1 VH with N54T, I75K
VL: B1 VL
B8: Antibody E20 (antibody, human IgG1, kappa, L234A L235A, V domains shown)
VH: B1 VH with N54T
VL: B1 VL
B9: Antibody E12 (antibody, human IgG1, kappa, L234A L235A, V domains shown)
VH: B1 VH with I75K
VL: B1 VL
B10: Antibody E15 (antibody, human IgG1, kappa, L234A L235A, V domains shown)
VH: B1 VH with N54T
VL: B1 VL with A34G, N36A
B11: Antibody E13 (antibody, human IgG1, kappa, L234A L235A, V domains shown)
VH: B1 VH with N54T
VL: B1 VL with A34G, N36A, L55Q, Y91F
B12: Antibody E10 (antibody, human IgG1, kappa, L234A L235A, V domains shown)
VH: B1 VH with M73T, I75K
VL: B1 VL with A34G, N36A
B13: Antibody E18 (antibody, human IgG1, kappa, L234A L235A, V domains shown)
VH: B1 VH with N54T, I75K
VL: B1 VL with A34G, N36A

Target: T1, cynomolgus SIRPα (EGM_02252) extracellular domain + His-tag (cynomolgus monkey)
T1 construct: SPR analyte; also called CySIRPα EGM_02252; cynoSIRPα; not shown: His-tag
T1 chain: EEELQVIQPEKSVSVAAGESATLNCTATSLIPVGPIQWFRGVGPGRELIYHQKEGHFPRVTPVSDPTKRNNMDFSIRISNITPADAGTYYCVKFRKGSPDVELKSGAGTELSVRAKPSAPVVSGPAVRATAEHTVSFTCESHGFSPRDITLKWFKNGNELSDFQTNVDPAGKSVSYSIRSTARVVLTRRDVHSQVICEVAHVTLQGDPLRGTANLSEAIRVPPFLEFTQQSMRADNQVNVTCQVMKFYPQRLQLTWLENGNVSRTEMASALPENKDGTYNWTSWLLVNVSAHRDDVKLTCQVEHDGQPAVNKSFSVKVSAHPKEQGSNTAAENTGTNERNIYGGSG
Assay: SPR
Description: (§1) The binding affinity of anti-SIRPα antibodies to the various SIRPα analytes is determined by surface plasmon resonance (SPR) using a ProteOn XPR36 (Bio-Rad). The running buffer for this experiment and all dilutions (except where stated) are done in 1×HBS-EP+. […] The sensorchip is deactivated with 1M ethanolamine HCl for 420 sec at a flowrate of 10 μl/min.
(§2) The analyte is injected over the captured antibody for 300 sec at a flowrate of 30 μl/min. The dissociation is done for 600 sec. Two-fold serial dilutions of each SIRP protein (Extracellular Domain+His-Tag) are injected as analyte with the highest concentrations indicated in table 36 below.

Binder	binding result
B1	no binding (tested: 1000 nM)
B2	no binding (tested: 1000 nM)
B3	no binding (tested: 1000 nM)
B4	no binding (tested: 1000 nM)
B5	no binding (tested: 1000 nM)
B6	no binding (tested: 1000 nM)
B7	no binding (tested: 1000 nM)
B8	no binding (tested: 1000 nM)
B9	no binding (tested: 1000 nM)
B10	no binding (tested: 1000 nM)
B11	no binding (tested: 1000 nM)
B12	no binding (tested: 1000 nM)
B13	no binding (tested: 1000 nM)

Target: T2, cynomolgus SIRPβ1 (XP_005568598) extracellular domain + His-tag (cynomolgus monkey)
T2 construct: SPR analyte; also called Cyno SIRPβ1 XP_005568598; cynoSIRPβ1; not shown: His-tag
T2 chain: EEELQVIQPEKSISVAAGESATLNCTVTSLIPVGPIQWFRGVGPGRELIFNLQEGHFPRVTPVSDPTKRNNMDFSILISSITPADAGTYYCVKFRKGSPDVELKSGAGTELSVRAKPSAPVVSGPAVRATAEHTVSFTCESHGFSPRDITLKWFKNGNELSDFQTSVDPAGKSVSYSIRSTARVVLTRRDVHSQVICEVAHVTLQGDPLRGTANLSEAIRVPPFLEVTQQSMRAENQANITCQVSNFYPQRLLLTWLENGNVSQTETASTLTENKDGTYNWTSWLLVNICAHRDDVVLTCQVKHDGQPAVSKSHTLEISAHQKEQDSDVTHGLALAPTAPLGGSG
Assay: SPR
Description: as §1, §2

Binder	binding result
B1	no binding (tested: 1000 nM)
B2	no binding (tested: 1000 nM)
B3	no binding (tested: 1000 nM)
B4	no binding (tested: 1000 nM)
B5	no binding (tested: 1000 nM)
B6	no binding (tested: 1000 nM)
B7	no binding (tested: 1000 nM)
B8	no binding (tested: 1000 nM)
B9	no binding (tested: 1000 nM)
B10	no binding (tested: 1000 nM)
B11	no binding (tested: 1000 nM)
B12	no binding (tested: 1000 nM)
B13	no binding (tested: 1000 nM)

Target: T3, cynomolgus SIRPγ (XP_005568591) extracellular domain + His-tag (cynomolgus monkey, UniProt Q9P1W8 29-359 (human entry))
T3 construct: SPR analyte; also called Cyno SIRPγ XP_005568591; cynoSIRPγ; not shown: His-tag
T3 chain: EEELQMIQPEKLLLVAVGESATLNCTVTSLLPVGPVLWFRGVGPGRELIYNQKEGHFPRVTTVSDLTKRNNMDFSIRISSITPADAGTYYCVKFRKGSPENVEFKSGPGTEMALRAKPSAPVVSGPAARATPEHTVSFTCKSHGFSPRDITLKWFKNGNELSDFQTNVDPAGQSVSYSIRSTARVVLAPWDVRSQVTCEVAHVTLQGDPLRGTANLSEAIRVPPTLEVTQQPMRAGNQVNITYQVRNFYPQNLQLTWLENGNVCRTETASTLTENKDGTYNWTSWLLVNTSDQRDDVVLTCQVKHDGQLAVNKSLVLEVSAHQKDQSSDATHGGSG
Assay: SPR
Description: as §1, §2

Binder	binding result
B1	no binding (tested: 1000 nM)
B2	no binding (tested: 1000 nM)
B3	no binding (tested: 1000 nM)
B4	no binding (tested: 1000 nM)
B5	no binding (tested: 1000 nM)
B6	no binding (tested: 1000 nM)
B7	no binding (tested: 1000 nM)
B8	no binding (tested: 1000 nM)
B9	no binding (tested: 1000 nM)
B10	no binding (tested: 1000 nM)
B11	no binding (tested: 1000 nM)
B12	no binding (tested: 1000 nM)
B13	no binding (tested: 1000 nM)

Target: T4, cynomolgus SIRPβ1v3 (XP_005568593) extracellular domain + His-tag (cynomolgus monkey)
T4 construct: SPR analyte; also called Cyno SIRPβ1v3 XP_005568593; cynoSIRPβ1v3; not shown: His-tag
T4 chain: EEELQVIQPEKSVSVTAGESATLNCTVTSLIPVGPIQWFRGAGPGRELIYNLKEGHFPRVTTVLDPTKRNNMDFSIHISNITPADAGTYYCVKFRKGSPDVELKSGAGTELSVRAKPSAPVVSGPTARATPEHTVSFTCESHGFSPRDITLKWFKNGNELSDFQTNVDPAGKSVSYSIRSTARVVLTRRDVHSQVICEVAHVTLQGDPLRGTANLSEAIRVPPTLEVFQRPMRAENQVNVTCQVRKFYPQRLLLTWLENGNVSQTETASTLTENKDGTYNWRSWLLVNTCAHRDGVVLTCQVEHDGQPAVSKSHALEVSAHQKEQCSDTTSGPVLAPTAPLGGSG
Assay: SPR, antibody captured, ECD-His analyte
Description: as §1, §2

Binder	Kd [nM]
B1	25.1
B2	13.1
B3	27
B4	13.2
B5	25
B6	51.9
B7	56.5
B8	57.4
B9	27.9
B10	25.8
B11	20.5
B12	15.7
B13	27.8
